Test results published in patent publication US20100210517A1 (RAPTOR PHARMACEUTICAL, published 2010).
Numbering of substitutions follows the chain as printed.

Key:
MAT CR12 = target: T1, MAT CR12 (human, UniProt Q9Y5Y6 452-524); test: solid-phase assay on coated CR protein, each ligand at 80 nM, blank-corrected absorbance
T1 construct: also called ST14 CR12; matriptase CR12
T1 sequence: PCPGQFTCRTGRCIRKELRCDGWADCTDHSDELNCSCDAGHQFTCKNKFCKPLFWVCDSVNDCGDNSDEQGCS
Method: (§1) Samples were tested twice, in duplicate, and values combined. Means and standard deviations were then calculated. Blank values obtained from wells incubated in the absence of ligand were used to correct absorbance data.
(§2) Solid phase binding assays-Purified, refolded CR protein (1 μg) was bound to Nunc Maxisorp™ 96-well plates in TBS pH 8 supplemented with 5 mM CaCl₂ (TBSC) overnight at 4° C. Wells were washed with TBSC and then blocked with TBSC containing 2% bovine serum albumin (BSA). […] Control wells contained no added ligand. As an additional control, to determine whether the absence of calcium affected binding, 10 mM EGTA was included in the incubation medium for some samples. […] Excess primary antibody was removed and wells washed before incubation with the secondary antibody, HRP-conjugated goat anti rabbit IgG (Bio-Rad). After washing, TMB substrate solutions (Bio-Rad) were added to detect HRP. Color development was stopped with 1N HCl. Absorption at 450 nm was measured with a microplate spectrophotometer (Molecular Devices). Data were plotted and Kd values derived by non-linear regression with the assumption of single-site binding (GraphPad Prism).

LRP2 CR3031 = target: T2, LRP2 CR3031 (human, UniProt P98164 3677-3755); test: as above
T2 construct: domain: CR3031; Its cloning is not described in the methods; not shown: N-terminal hexahistidine and S-peptide tags of pET30(+)a
T2 sequence (P98164 3677-3755): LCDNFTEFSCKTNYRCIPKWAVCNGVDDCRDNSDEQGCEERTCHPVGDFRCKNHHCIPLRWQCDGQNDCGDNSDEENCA
Method: as §1, §2

LRP2 CR2728 = target: T3, LRP2 CR2728 (human, UniProt P98164 3552-3631); test: as above
T3 construct: domain: CR2728; Its cloning is not described in the methods; not shown: N-terminal hexahistidine and S-peptide tags of pET30(+)a
T3 sequence (looked up): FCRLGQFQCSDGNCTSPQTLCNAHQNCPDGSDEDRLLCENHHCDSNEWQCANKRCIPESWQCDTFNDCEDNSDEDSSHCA
Method: as §1, §2

LRP2 CR3536 = target: T4, LRP2 CR3536 (human, UniProt P98164 3882-3963); test: as above
T4 construct: domain: CR3536; not shown: N-terminal hexahistidine and S-peptide tags of pET30(+)a
T4 sequence (P98164 3882-3963): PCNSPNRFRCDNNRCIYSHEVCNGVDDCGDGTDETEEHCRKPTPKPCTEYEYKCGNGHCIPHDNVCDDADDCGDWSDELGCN
Method: as §1, §2

LRP2 CR34-36 = target: T5, LRP2 CR34-36 (human, UniProt P98164 3841-3963); test: as above
T5 construct: domain: CR34-36; not shown: N-terminal hexahistidine and S-peptide tags of pET30(+)a
T5 sequence (P98164 3841-3963): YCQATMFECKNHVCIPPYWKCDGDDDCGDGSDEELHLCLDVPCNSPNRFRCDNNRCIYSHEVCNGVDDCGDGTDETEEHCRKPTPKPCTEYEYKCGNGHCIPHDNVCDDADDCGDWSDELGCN
Method: as §1, §2

LRP2 CR89 V1047D R1088D [1] = target: T6, LRP2 CR89 V1047D R1088D (human, UniProt P98164 1022-1105); test: solid-phase assay; OD at the highest ligand concentration as percent of the highest OD of all ligands
T6 construct: also called YDWD
T6 sequence: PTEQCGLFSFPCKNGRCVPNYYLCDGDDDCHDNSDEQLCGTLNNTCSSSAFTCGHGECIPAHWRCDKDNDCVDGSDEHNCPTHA
Method: as §2
(§3) To test this idea, mutant LRP2 CR89 were prepared in which the native, non-canonical residues at these positions were sequentially substituted with the non-native, canonical residues. As defined above, the A, C, A′, C′ string for LRP2 CR89 is YVWR. Mutants included LRP2 CR89 Y1042W (WVWR), LRP2 CR89 V1047D (YDWR), LRP2 CR89 R1088D (YVWD), LRP2 CR89 V1047D R1088D (YDWD), LRP2 CR89 Y1042W V1047D R1088D (WDWD), LRP2 CR89 Y1042W V1047D (WDWR), LRP2 CR89 Y1042W R1088D (WVWD).

LRP2 CR89 Y1042W R1088D [2] = target: T7, LRP2 CR89 Y1042W R1088D (human, UniProt P98164 1022-1105); test: as above
T7 construct: also called WVWD
T7 chain: T6 sequence with Y22W, D27V
Method: as §2, §3

[3] = target: T8, LRP2 CR89 Y1042W V1047D R1088D (human, UniProt P98164 1022-1105); test: as above
T8 construct: also called WDWD
T8 chain: T6 sequence with Y22W
Method: as §2, §3

LRP2 CR89 V1047D = target: T9, LRP2 CR89 V1047D (human, UniProt P98164 1022-1105); test: solid-phase assay on coated CR protein, anti-RAP detection, A450
T9 construct: also called YDWR
T9 sequence: T6 sequence with D68R
Method: as §2, §3

LRP2 CR89 Y1042W V1047D = target: T10, LRP2 CR89 Y1042W V1047D (human, UniProt P98164 1022-1105); test: as above
T10 construct: also called WDWR
T10 chain: T6 sequence with Y22W, D68R
Method: as §2, §3

LRP2 CR89 V1047D R1088D [4] = target: T6, LRP2 CR89 V1047D R1088D; test: as above
Method: as §2, §3

LRP2 CR89 Y1042W R1088D [5] = target: T7, LRP2 CR89 Y1042W R1088D; test: as above
Method: as §2, §3

[6] = target: T8, LRP2 CR89 Y1042W V1047D R1088D; test: as above
Method: as §2, §3

LRP2 CR89 R1088D = target: T11, LRP2 CR89 R1088D (human, UniProt P98164 1022-1105); test: solid-phase binding assay, CR protein coated on plate, anti-RAP detection
T11 construct: also called YVWD

B1: MegaRAP1 d3 (ligand)
chain: LDRLRRVSHQGYTTEAKFEEPRVIDLWDLAQSANLTDKELEAFREELKYFKAKIEAHNHYQKQLEIAHEELRHAESVGDGERVSRSREKHALLEGRTKELGYTVKKHLQDLSGRISRAR
notes: V175L lies outside the d3 construct; also called RAPv2A d3; RAP v2 d3; not shown: N-terminal hexahistidine and S-peptide tags of pET30(+)a
B1: no binding (tested: 80 nM) (MAT CR12); no binding (tested: 80 nM) (LRP2 CR3031); no binding (tested: 80 nM) (LRP2 CR2728). For the same binder, the binding result (LRP2 CR3536) was “no binding (tested: 80 nM)”, the binding result (LRP2 CR34-36) was “no binding (tested: 80 nM)” and the “% max bind” value (LRP2 CR89 V1047D R1088D [1]) was 3%. For the same binder, the “% max bind” value (LRP2 CR89 Y1042W R1088D [2]) was 4%, the “% max bind” value [3] was 1% and the binding result (LRP2 CR89 V1047D) was “no binding (tested: 100 nM)”. B1: no binding (tested: 100 nM) (LRP2 CR89 Y1042W V1047D); no binding (tested: 100 nM) (LRP2 CR89 V1047D R1088D [4]); no binding (tested: 100 nM) (LRP2 CR89 Y1042W R1088D [5]). For the same binder, the binding result [6] was “no binding (tested: 100 nM)” and the “fold loss of affinity relative to LRP2 CR89” value (LRP2 CR89 R1088D) was ~2 fold.
